The values below come from publication PMC4256270, “In Vivo Occupancy of Mitochondrial Single-Stranded DNA Binding Protein Supports the Strand Displacement Mode of DNA Replication”.

The data set has as its target T1, mtSSB (mitochondrial single-stranded DNA-binding protein) (human, UniProt Q04837 17-148).
T1 sequence: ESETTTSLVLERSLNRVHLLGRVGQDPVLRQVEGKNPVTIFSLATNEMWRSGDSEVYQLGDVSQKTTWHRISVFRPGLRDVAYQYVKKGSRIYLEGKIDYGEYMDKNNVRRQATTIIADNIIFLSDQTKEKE
As to the kind of experiment: EMSA; 25 fmol DNA in 15 ul; no free template at tetramer:DNA 1:1 or higher; 10 mM Mg2+, 2 mM ATP; 20 mM Tris-HCl pH 8.0, 10 mM MgCl2, 100 ug/ml BSA, 1 mM DTT, 2 mM ATP, 10% glycerol, 15 min at room temperature; 10% native PAGE in 1x TBE. Particulars: protein: recombinant; chain copies: 4; label: 5'-32P; single strand, unstructured. (In general: A gel shift assay detects complexes by their altered migration in electrophoresis.)

On to AACACCAGCAGAACTTTTTTAACAAGCAACACACAGAAGACA (ssDNA) [6-dT (no predicted secondary structure; no stem)], for which the binding result is “binds”.
